These results are taken from publication PMC4728063.

The target of this test is T1, RS1 (retinoschisin), human, recombinant, secreted from Sf21 insect cells (human), O15537.
T1 chain: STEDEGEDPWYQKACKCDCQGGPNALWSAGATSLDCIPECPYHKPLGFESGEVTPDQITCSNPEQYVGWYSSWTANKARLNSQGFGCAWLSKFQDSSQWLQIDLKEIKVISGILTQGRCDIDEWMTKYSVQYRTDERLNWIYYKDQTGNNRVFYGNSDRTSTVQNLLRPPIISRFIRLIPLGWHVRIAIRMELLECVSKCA
Put plainly: negative stain single particle electron microscopy; purified RS1 adsorbed to glow discharged carbon-coated copper grids, stained with 0.75% uranyl formate; 2D classification (SPIDER) and 3D reconstruction (EMAN2, RELION, D8 symmetry enforced). The settings on record: remark: other sources report otherwise.

B1: RS1 (retinoschisin), human, recombinant, secreted from Sf21 insect cells, O15537 24-224 (natural protein)
chain: STEDEGEDPWYQKACKCDCQGGPNALWSAGATSLDCIPECPYHKPLGFESGEVTPDQITCSNPEQYVGWYSSWTANKARLNSQGFGCAWLSKFQDSSQWLQIDLKEIKVISGILTQGRCDIDEWMTKYSVQYRTDERLNWIYYKDQTGNNRVFYGNSDRTSTVQNLLRPPIISRFIRLIPLGWHVRIAIRMELLECVSKCA
A word on the stoichiometry N: it is a count of units in the complex or per binding partner. As to B1, the stoichiometry N was found to be 8.
